# According to the RNAGym collection of RNA variant scans (doi:10.7554/elife.80360):
# B1: HDV Ribozyme (parent)
# chain: GGCCGGCAUGGUCCCAGCCUCCUCGCUGGCGCCGGCUGGGCAACAUUCCGAGGGGACCGUCCCCUCGGUAAUGGCGAAUGGGACCCA
# Variants of: B1
# Test: self-cleavage, relative activity (ratio to wild type); higher = more cleavage; co-transcriptional
row,Variant,self-cleavage
1,G11A C61G,0.332
2,G11U C57G,0.358
3,G11A U27C,0.447
4,G11A U27A,0.815
5,G11C A51G,0.297
6,G11C C75U,0.185
7,G11C C84G,0.831
8,G11C C36U,0.136
9,G11C C36G,0.148
10,G11U A87G,0.404
11,G11C C48A,0.277
12,G11C C66A,0.285
13,G11C C66G,0.383
14,G11U U12G,0.199
15,G11U U12C,0.125
16,G11C U23G,0.0652
17,G11U G39C,0
18,G11U U46C,0.135
19,G11C C64G,0.514
20,G11C G28C,0
21,G11C G28U,0.0268
22,G11U G81U,0.138
23,G11C C85G,0.831
24,G11A G34C,0.0378

row,Variant,self-cleavage
1,G11A G53C,0.372
2,G11A U23A,0.313
3,G11A U23C,0.353
4,G11C C14U,0.285
5,G11C C13A,0.142
6,G11C C21G,0
7,G11C A45G,0.249
8,G11C A71G,0.277
9,G11U C48A,0.423
10,G11A U69C,0.324
11,G11A U69G,0.374
12,G11C U69C,0.317
13,G11C U69G,0.516
14,G11U C86U,0.415
15,G11U C86G,0.199
16,G11U C86A,0.489
17,G11U A51U,0.506
18,G11U A51C,0.324
19,G11A G81C,0.0396
20,G11A G81A,0.0639
21,G11A G81U,0.137
22,G11C U79C,0.121
23,G11A C62G,0.437
24,G11A G80U,0.0839

row,Variant,self-cleavage
1,G11C G73A,0.0936
2,G11C G73U,0.16
3,G11C C86A,0.489
4,G11C G81U,0.225
5,G11C G17U,0.332
6,G11A G29C,0.123
7,G11U G40C,0.0181
8,G11U G40U,0.18
9,G11A U72G,0.0923
10,G11C U37A,0
11,G11C U37C,0.201
12,G11C C49U,0.332
13,G11A G38U,0
14,G11U A70C,0.0536
15,G11U C19U,0.0489
16,G11C C62U,0.271
17,G11C C62G,0.214
18,G11C G68A,0.295
19,G11U A83U,0.138
20,G11U A83G,0.175
21,G11A C48A,0.506
22,G11A C48G,0.288
23,G11C C22U,0.0817
24,G11C C22A,0.0898

row,Variant,self-cleavage
1,G11C A70G,0.0692
2,G11C A70C,0.32
3,G11U G31U,0.129
4,G11U G31A,0.179
5,G11A G82A,0.253
6,G11A G82U,0.0744
7,G11C G35A,0.125
8,G11U C58G,0.44
9,G11A C49U,0.386
10,G11A C49A,0.363
11,G11C G29C,0.0852
12,G11A C57G,0.432
13,G11A C57U,0.256
14,G11A C57A,0.45
15,G11C G34C,0.0852
16,G11U C30G,0.0767
17,G11C U65C,0.297
18,G11U C75U,0.0422
19,G11C G53A,0.344
20,G11C G53U,0.415
21,G11C G53C,0.291
22,G11U G50C,0.359
23,G11U G28U,0.0396
24,G11U G28A,0.0219

row,Variant,self-cleavage
1,G11U U65A,0.321
2,G11U C26U,0.847
3,G11U A56C,0.332
4,G11C C32U,0.192
5,G11C C32G,0.0875
6,G11A G39A,0.0936
7,G11A G67A,0.0841
8,G11U C21U,0.0923
9,G11C A43C,0
10,G11C A43U,0.0583
11,G11A G76C,0.796
12,G11U C32G,0.0767
13,G11U U72C,0.231
14,G11U C41A,0.201
15,G11U C41U,0.358
16,G11C C26G,0.95
17,G11C C26A,0.462
18,G11A G35U,0.149
19,G11A G40U,0.458
20,G11A G40A,0.582
21,G11C G31A,0.0804
22,G11U U47A,0.397
23,G11A G50C,0.439
24,G11A G50U,0.283

row,Variant,self-cleavage
1,G11A G50A,0.366
2,G11U C85U,0.767
3,G11U C33A,0.0604
4,G11A U65A,0.396
5,G11A U37A,0.0567
6,G11A U37C,0.381
7,G11A C75G,0.141
8,G11A C75A,0
9,G11U A45U,0.217
10,G11A U79C,0.161
11,G11U G67A,0.0875
12,G11U A71C,0.405
13,G11C A87U,0.453
14,G11U G38A,0.0135
15,G11A G25A,0.0755
16,G11U C64G,0.465
17,G11A C85G,0.678
18,G11U U20G,0.0791
19,G11U C84G,0.489
20,G11U G35U,0.115
21,G11C C63U,0.264
22,G11C G67C,0.115
23,G11C G67A,0.248
24,G11C G67U,0.323

row,Variant,self-cleavage
1,G11U G80A,0.136
2,G11C A16G,0.277
3,G11A U60A,0.356
4,G11C C30G,0
5,G11C C30U,0.0604
6,G11C C61A,0.185
7,G11C C61G,0.217
8,G11C C61U,0.157
9,G11U G76U,0.596
10,U12A,0.309
11,G11U G73A,0.138
12,G11U G73C,0.126
13,G11C G38A,0.0519
14,G11U G25U,0.0623
15,G11A G74C,0.0723
16,G11U U27G,0.353
17,G11A G52A,0.38
18,G11C A77C,0.128
19,G11U G34C,0.166
20,G11U G34A,0.21
21,G11A G54C,0.479
22,G11A G54U,0.391
23,G11A G54A,0.371
